Measurements reported in patent publication US20190233519A1 (published 2019).
Read-outs that look alike come from different tables or passages of the source.

How the values were obtained:
CTLA-4/Fc = assay: SPR
[1] = biological target: T1, human PD-1 expressed on CHO cells (human, UniProt Q15116 25-288); assay: FACS ligand competition (hPD-L1 Fc)
PD-1-His protein [2] = biological target: T2, PD-1-His protein (UniProt Q15116 25-167); assay: SPR
CTLA-4-His protein [3] = biological target: T3, CTLA-4-His protein (UniProt P16410 37-161); assay: SPR
T3 sequence (P16410 37-161): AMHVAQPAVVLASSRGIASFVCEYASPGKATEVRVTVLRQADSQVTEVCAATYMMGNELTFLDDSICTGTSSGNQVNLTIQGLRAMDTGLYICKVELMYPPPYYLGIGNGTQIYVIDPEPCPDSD

CTLA-4-His protein [4] = biological target: T3, CTLA-4-His protein; assay: SPR; remark: listed apart in the source
PD-1-His protein [5] = biological target: T2, PD-1-His protein; assay: SPR; remark: listed apart in the source
[6] = biological target: hPD-1-Fc fusion protein having a biotin label (human, UniProt Q15116 25-167, biotin label (sites not given)); assay: FACS ligand competition
hPD-1-Fc fusion protein having a biotin label, sequence (Q15116 25-167): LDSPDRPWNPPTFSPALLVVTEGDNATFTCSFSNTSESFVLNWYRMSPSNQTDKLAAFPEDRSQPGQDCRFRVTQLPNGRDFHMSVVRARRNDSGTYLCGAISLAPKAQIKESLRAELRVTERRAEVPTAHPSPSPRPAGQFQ

[7] = biological target: T4, biotin-labeled hCTLA-4/Fc protein (UniProt P16410 37-161, biotin label in the FACS competition assays (sites not given)); assay: FACS ligand competition
T4 sequence (P16410 37-161): as the sequence (P16410 37-161) above

[8] = biological target: T5, human CTLA-4 expressed on CHO cells (UniProt P16410 37-223); assay: FACS cell binding
T5 sequence (P16410 37-223): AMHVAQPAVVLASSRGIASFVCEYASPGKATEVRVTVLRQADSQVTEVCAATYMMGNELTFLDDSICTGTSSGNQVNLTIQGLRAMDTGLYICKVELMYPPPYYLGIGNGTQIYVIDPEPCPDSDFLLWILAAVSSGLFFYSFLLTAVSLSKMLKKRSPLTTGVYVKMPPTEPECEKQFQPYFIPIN

[9] = biological target: T1, human PD-1 expressed on CHO cells; assay: FACS cell binding
[10] = biological target: T4, biotin-labeled hCTLA-4/Fc protein; assay: FACS ligand competition (B7-1 cells)
CTLA-4-His protein [11] = biological target: T3, CTLA-4-His protein; assay: SPR; remark: listed apart in the source
[12] = biological target: T4, biotin-labeled hCTLA-4/Fc protein; assay: FACS ligand competition; remark: listed apart in the source
[13] = biological target: T5, human CTLA-4 expressed on CHO cells; assay: FACS cell binding; remark: listed apart in the source
[14] = biological target: T4, biotin-labeled hCTLA-4/Fc protein; assay: FACS ligand competition (B7-1 cells); remark: listed apart in the source

T1 sequence (Q15116 25-288): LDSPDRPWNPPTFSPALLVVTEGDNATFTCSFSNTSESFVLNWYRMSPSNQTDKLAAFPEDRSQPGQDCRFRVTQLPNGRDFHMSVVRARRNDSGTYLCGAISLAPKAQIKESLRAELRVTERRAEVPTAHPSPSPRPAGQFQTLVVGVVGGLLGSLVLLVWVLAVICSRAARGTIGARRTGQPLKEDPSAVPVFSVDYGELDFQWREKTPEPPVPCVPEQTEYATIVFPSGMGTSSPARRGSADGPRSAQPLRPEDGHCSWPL
T2 sequence (Q15116 25-167): as the sequence (Q15116 25-167) above

B1: AS02640 sdAb (VHH)
VHH: QVQLVESGGGVVQPGRSLRLSCAASGRTITTITMGWFRQAPGKGLEFVASHSWTDNNPYYADSVKGRFIISRDNSKNRLYLQMNSLRAEDTAVYYCAATARRSFVGRQWYTEARQYDYWGQGTLVTVSS
With B1 as the binder, how does the Kd (CTLA-4/Fc) read?
The Kd was 2.95 nM.

B2: BCP-2 (BCP-K311) (Keytruda-9GS-A34311) (bispecific antibody)
heavy: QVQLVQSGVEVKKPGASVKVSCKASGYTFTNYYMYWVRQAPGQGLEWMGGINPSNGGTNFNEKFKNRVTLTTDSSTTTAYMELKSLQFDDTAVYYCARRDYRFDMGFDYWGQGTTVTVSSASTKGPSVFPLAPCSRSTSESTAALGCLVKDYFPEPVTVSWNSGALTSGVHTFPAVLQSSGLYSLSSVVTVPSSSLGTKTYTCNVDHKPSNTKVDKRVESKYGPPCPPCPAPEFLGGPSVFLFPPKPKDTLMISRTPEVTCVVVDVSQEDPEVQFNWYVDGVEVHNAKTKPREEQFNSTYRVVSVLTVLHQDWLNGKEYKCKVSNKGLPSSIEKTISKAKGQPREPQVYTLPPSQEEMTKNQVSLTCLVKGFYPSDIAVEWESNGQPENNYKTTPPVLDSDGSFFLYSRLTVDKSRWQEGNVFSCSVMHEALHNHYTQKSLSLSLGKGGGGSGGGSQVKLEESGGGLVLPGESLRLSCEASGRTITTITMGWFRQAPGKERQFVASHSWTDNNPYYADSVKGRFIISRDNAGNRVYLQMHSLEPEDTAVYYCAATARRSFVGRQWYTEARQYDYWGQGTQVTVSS
light: EIVLTQSPATLSLSPGERATLSCRASKGVSTSGYSYLHWYQQKPGQAPRLLIYLASYLESGVPARFSGSGSGTDFTLTISSLEPEDFAVYYCQHSRDLPLTFGGGTKVEIKRTVAAPSVFIFPPSDEQLKSGTASVVCLLNNFYPREAKVQWKVDNALQSGNSQESVTEQDSKDSTYSLSSTLTLSKADYEKHKVYACEVTHQGLSSPVTKSFNRGEC
Which results are given for B2?
IC50 [1]: 16.5 nM; Kd (PD-1-His protein [2]): 7.63 nM; Kd (CTLA-4-His protein [3]): 28.4 nM; Kd (CTLA-4-His protein [4]): 28 nM

B3: BCP-74 (AS07014VH11-mutated hIgG1 hinge-Keytruda) (bispecific antibody)
heavy: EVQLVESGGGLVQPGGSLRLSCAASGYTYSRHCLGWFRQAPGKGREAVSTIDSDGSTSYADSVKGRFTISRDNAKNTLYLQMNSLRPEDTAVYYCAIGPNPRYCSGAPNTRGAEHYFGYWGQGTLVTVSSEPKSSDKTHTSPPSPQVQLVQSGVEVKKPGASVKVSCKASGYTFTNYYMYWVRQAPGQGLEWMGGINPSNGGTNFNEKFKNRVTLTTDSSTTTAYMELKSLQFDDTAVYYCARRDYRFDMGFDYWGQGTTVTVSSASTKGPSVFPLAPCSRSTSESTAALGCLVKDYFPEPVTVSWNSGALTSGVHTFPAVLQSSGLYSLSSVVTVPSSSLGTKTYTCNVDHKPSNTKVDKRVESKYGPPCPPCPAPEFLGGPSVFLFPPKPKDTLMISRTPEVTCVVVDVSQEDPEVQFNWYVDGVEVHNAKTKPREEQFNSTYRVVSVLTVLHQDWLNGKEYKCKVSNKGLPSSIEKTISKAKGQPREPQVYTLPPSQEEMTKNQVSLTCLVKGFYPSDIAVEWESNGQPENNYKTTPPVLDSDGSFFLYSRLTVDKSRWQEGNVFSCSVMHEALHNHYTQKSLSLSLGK
light: EIVLTQSPATLSLSPGERATLSCRASKGVSTSGYSYLHWYQQKPGQAPRLLIYLASYLESGVPARFSGSGSGTDFTLTISSLEPEDFAVYYCQHSRDLPLTFGGGTKVEIKRTVAAPSVFIFPPSDEQLKSGTASVVCLLNNFYPREAKVQWKVDNALQSGNSQESVTEQDSKDSTYSLSSTLTLSKADYEKHKVYACEVTHQGLSSPVTKSFNRGEC
Which Kd (PD-1-His protein [5]) does the source give for B3 here?
Its Kd is 2.5 nM.

And the IC50 [6]?
The IC50 was 2.6 nM.

What about the IC50 [7] of the same binder?
Its IC50 is 17.2 nM.

And the EC50 [8]?
Its EC50 is 3.9 nM.

What about the EC50 [9] of the same binder?
Its EC50 is 1.6 nM.

And the Kd (CTLA-4-His protein [4])?
Its Kd is 2.6 nM.

B4: BCP-311K (A34311-9GS-Keytruda) (bispecific antibody)
heavy: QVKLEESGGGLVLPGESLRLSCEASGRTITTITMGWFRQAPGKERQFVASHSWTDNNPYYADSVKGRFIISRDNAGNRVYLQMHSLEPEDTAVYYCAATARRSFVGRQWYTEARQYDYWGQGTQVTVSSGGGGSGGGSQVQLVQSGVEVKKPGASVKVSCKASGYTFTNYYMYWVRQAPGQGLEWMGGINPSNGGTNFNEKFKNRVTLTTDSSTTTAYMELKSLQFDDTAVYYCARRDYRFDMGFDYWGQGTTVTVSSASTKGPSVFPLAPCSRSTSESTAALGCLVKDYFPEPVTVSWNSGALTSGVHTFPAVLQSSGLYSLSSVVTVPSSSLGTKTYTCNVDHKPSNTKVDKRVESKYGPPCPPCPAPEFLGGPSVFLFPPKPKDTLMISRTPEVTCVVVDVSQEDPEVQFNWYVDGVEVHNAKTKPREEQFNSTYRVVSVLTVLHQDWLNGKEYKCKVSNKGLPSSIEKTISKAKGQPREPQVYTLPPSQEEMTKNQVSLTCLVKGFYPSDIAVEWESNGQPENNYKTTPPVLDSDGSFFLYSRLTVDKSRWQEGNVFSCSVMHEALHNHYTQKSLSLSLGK
light: EIVLTQSPATLSLSPGERATLSCRASKGVSTSGYSYLHWYQQKPGQAPRLLIYLASYLESGVPARFSGSGSGTDFTLTISSLEPEDFAVYYCQHSRDLPLTFGGGTKVEIKRTVAAPSVFIFPPSDEQLKSGTASVVCLLNNFYPREAKVQWKVDNALQSGNSQESVTEQDSKDSTYSLSSTLTLSKADYEKHKVYACEVTHQGLSSPVTKSFNRGEC
For B4, which IC50 [1] is on record?
Its IC50 is 33.7 nM.

And the Kd (PD-1-His protein [2])?
The Kd was 11.1 nM.

What about the Kd (CTLA-4-His protein [3]) of the same binder?
Its Kd is 13 nM.

What about the Kd (CTLA-4-His protein [4]) of the same binder?
Its Kd is 13 nM.

And the EC50 [10]?
Its EC50 is 41.9 nM.

B5: BCP-75 (AS07189TKDVH11-mutated hIgG1 hinge-Keytruda) (bispecific antibody)
heavy: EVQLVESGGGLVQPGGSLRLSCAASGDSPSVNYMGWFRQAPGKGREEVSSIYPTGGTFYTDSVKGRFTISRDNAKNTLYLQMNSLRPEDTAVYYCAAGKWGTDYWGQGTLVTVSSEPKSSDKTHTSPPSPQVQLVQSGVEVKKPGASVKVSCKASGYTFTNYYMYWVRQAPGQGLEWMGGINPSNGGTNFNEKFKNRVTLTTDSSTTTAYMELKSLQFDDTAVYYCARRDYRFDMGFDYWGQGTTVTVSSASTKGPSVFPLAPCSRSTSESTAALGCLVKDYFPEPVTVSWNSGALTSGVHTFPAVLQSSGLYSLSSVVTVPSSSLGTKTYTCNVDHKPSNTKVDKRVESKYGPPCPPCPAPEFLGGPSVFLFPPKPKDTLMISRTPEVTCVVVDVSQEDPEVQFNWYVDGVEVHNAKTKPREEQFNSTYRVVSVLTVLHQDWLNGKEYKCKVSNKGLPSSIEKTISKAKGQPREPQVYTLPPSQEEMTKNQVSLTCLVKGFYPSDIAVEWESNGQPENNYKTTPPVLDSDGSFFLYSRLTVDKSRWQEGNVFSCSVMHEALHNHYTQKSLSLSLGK
light: EIVLTQSPATLSLSPGERATLSCRASKGVSTSGYSYLHWYQQKPGQAPRLLIYLASYLESGVPARFSGSGSGTDFTLTISSLEPEDFAVYYCQHSRDLPLTFGGGTKVEIKRTVAAPSVFIFPPSDEQLKSGTASVVCLLNNFYPREAKVQWKVDNALQSGNSQESVTEQDSKDSTYSLSSTLTLSKADYEKHKVYACEVTHQGLSSPVTKSFNRGEC
Which results are given for B5?
Kd (PD-1-His protein [5]): 2.2 nM; IC50 [6]: 1.5 nM; IC50 [7]: 11.7 nM; EC50 [8]: 3 nM; EC50 [9]: 1.6 nM; Kd (CTLA-4-His protein [4]): 4 nM

B6: BCP-73 (A34311VH11-mutated hIgG1 hinge-Keytruda) (bispecific antibody)
heavy: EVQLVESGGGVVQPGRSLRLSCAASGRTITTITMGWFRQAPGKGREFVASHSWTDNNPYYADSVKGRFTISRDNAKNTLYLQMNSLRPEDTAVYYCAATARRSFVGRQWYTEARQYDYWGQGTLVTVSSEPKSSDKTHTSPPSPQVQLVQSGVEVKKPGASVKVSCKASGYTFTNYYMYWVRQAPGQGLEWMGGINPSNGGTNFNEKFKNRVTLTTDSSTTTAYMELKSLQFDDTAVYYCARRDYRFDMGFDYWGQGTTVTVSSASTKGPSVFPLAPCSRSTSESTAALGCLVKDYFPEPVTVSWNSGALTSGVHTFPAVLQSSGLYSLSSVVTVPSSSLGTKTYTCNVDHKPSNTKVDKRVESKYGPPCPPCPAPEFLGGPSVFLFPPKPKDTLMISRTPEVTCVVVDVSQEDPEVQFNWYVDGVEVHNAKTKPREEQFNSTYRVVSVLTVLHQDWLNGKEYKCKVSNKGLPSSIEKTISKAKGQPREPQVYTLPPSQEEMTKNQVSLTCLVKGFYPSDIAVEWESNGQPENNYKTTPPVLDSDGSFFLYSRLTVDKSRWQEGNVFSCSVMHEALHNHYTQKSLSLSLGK
light: EIVLTQSPATLSLSPGERATLSCRASKGVSTSGYSYLHWYQQKPGQAPRLLIYLASYLESGVPARFSGSGSGTDFTLTISSLEPEDFAVYYCQHSRDLPLTFGGGTKVEIKRTVAAPSVFIFPPSDEQLKSGTASVVCLLNNFYPREAKVQWKVDNALQSGNSQESVTEQDSKDSTYSLSSTLTLSKADYEKHKVYACEVTHQGLSSPVTKSFNRGEC
B6 was tested. Which Kd (PD-1-His protein [5]) did it give?
The Kd was 7.5 nM.

And the IC50 [6]?
The IC50 was 1.1 nM.

What about the IC50 [7] of the same binder?
The IC50 was 11.5 nM.

And the EC50 [8]?
The EC50 was 3 nM.

What about the EC50 [9] of the same binder?
Its EC50 is 2.2 nM.

And the Kd (CTLA-4-His protein [4])?
The Kd was 7.5 nM.

B7: BCP-78 (A34311VH11-mutated hIgG1 hinge-Opdivo) (bispecific antibody)
heavy: EVQLVESGGGVVQPGRSLRLSCAASGRTITTITMGWFRQAPGKGREFVASHSWTDNNPYYADSVKGRFTISRDNAKNTLYLQMNSLRPEDTAVYYCAATARRSFVGRQWYTEARQYDYWGQGTLVTVSSEPKSSDKTHTSPPSPQVQLVESGGGVVQPGRSLRLDCKASGITFSNSGMHWVRQAPGKGLEWVAVIWYDGSKRYYADSVKGRFTISRDNSKNTLFLQMNSLRAEDTAVYYCATNDDYWGQGTLVTVSSASTKGPSVFPLAPCSRSTSESTAALGCLVKDYFPEPVTVSWNSGALTSGVHTFPAVLQSSGLYSLSSVVTVPSSSLGTKTYTCNVDHKPSNTKVDKRVESKYGPPCPPCPAPEFLGGPSVFLFPPKPKDTLMISRTPEVTCVVVDVSQEDPEVQFNWYVDGVEVHNAKTKPREEQFNSTYRVVSVLTVLHQDWLNGKEYKCKVSNKGLPSSIEKTISKAKGQPREPQVYTLPPSQEEMTKNQVSLTCLVKGFYPSDIAVEWESNGQPENNYKTTPPVLDSDGSFFLYSRLVDKSRWQEGNVFSCSVMHEALHNHYTQKSLSLSLGK
light: not shown
B7 was tested. Which Kd (PD-1-His protein [5]) did it give?
Its Kd is 8.1 nM.

And the IC50 [6]?
The IC50 was 4.8 nM.

And the IC50 [7]?
The IC50 was 7.1 nM.

What about the EC50 [8] of the same binder?
Its EC50 is 2.7 nM.

What about the EC50 [9] of the same binder?
The EC50 was 1.7 nM.

And the Kd (CTLA-4-His protein [4])?
The Kd was 6.6 nM.

B8: A34311 sdAb (VHH)
VHH: QVKLEESGGGLVLPGESLRLSCEASGRTITTITMGWFRQAPGKERQFVASHSWTDNNPYYADSVKGRFIISRDNAGNRVYLQMHSLEPEDTAVYYCAATARRSFVGRQWYTEARQYDYWGQGTQVTVSS
B8 was tested. Which Kd (CTLA-4/Fc) did it give?
The Kd was 4.96 nM.

B9: AS07014 HCAb (Fc fusion)
heavy: QVHLVESGGGSVQAGGSLRLSCAASGYTYSRHCLGWFRQTPGKEREAVATIDSDGSTSYADSVKGRFTISSDNAKNTLYLQMNSLKPEDTAMYYCAIGPNPRYCSGAPNTRGAEHYFGYWAQGTQVTVSS
Which results are given for B9?
Kd (CTLA-4-His protein [11]): 1.1 nM; IC50 [12]: 12.3 nM; EC50 [13]: 15.3 nM

B10: A36922 HCAb (Fc fusion)
heavy: QVQLVESGGGLVQAGGSLRLSCAASGRLSRTFTMGWYRQAPGKQRDLVASITTSGSTNYADSVKGRFTISRDNAKNTVILQMNSLVPEDTAVYYCRFLSASTAAWGQGTQVTIST
Which results are given for B10?
IC50 [14]: 14.1 nM; IC50 [12]: 14.1 nM

B11: AS07189 HCAb (Fc fusion)
heavy: QVQLVESGGGSVQAGGSLRLSCAASGDSPSVNYMGWFRRAPEKQREQREEVASIYPTGGTFYTDSVKGRFTISRDNAKNTLYLQMTALKPEDTAMYYCAAGKWGTDYWGQGTQVIVSS
Which Kd (CTLA-4-His protein [11]) does the source give for B11 here?
The Kd was 3 nM.

What about the IC50 [12] of the same binder?
The IC50 was 11.9 nM.

What about the EC50 [13] of the same binder?
The EC50 was 6.8 nM.

B12: A36566 HCAb (Fc fusion)
heavy: EVQLVESGGGLVQVGDSLRLSCAASGRSFENYAIGWFRQAPGKEREFVATISWIPRTAYSTTYYADSVKGRFTISGDNSKNTVYLQMTSLKPEDTAVYYCAAGGATGPLALDSHYGYWGQGTQVTVSS
What does the source list for B12?
IC50 [14]: 6.6 nM; IC50 [12]: 6.6 nM
